Assay results taken from publication doi:10.1101/2025.08.28.672883 (bioRxiv, 2025).
Changes are numbered by the printed parent chain.

Tests used:
Conditions in all cases: both partners purified
[1] = target: SARS-CoV-2 Omicron BA.1 spike receptor-binding domain (SARS-CoV-2 Omicron BA.1, S371L | S373P | S375F | Q493R | Q498R | N501Y | Y505H); assay: BLI; Octet Red; […] (20 ug/ml) […]; kinetics buffer 1x PBS pH 7.4, 0.01% BSA, 0.002% Tween 20; 1:1 binding model
[2] = target: SARS-CoV-2 Omicron BA.5 spike receptor-binding domain (SARS-CoV-2 Omicron BA.5, S375F | D405N | N501Y | Y505H); assay: crystal structure
[3] = target: SARS-CoV-2 Omicron JN.1 spike receptor-binding domain (SARS-CoV-2 Omicron JN.1, strain); assay: BLI; Octet Red; […] (20 ug/ml) […]; kinetics buffer 1x PBS pH 7.4, 0.01% BSA, 0.002% Tween 20; 1:1 binding model
[4] = target: SARS-CoV-2 Omicron BQ.1.1 spike receptor-binding domain (SARS-CoV-2 Omicron BQ.1.1, strain); assay: as above
[5] = target: SARS-CoV-2 Omicron XBB.1.5 spike receptor-binding domain (SARS-CoV-2 Omicron XBB.1.5, strain); assay: as above

Measured: binding result

B1: ADI-77310 Fab (Fab, V domains shown)
VH: EVQLVESGGGLVKPGGSLRLSCAASGFTFGSYYMNWVRQAPGKGLEWVSSISEDGYSTYYPDSLKGRFTISRDSAKNSLYLQMNSLRADDTAVYYCARDFGGHTAWAGTGFTYWGQGTLVTVSS
VL: QSVLTQPPSVSGAPGQRITISCTGSSSNIGAGYDVHWYQQLPGTAPKLLIYGSSSRNSGVPDRFSGSKSGTSASLAITGLQAEDEADYYCQSYDSDLSVLYTFGTGTKVTVL
binds: [1]

B2: VYD222 Fab (Fab, V domains shown)
VH: B1 VH with Y33E, H103D
VL: B1 VL with S58Y, S98G
binds: all assays above
